The text below walks through data of patent publication US20170066831A1 (Janssen / Centocor, published 2017).

The target in experiment [1] is T1, HH-ST2L (human ST2L Domains I and II), wild type (human, UniProt Q01638 19-205).
T1 construct: also called ST2L-D1D2
T1 sequence: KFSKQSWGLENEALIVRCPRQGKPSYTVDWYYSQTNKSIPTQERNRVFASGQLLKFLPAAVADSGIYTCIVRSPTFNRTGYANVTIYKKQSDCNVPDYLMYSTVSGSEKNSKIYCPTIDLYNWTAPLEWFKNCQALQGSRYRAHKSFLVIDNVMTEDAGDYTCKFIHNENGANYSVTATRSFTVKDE
Briefly: ProteOn SPR, mAb captured by anti-Fc, ST2L-D1D2 injected. As to the method:
Binding studies were performed using the ProteOn XPR36 Protein Interaction Array system (Bio-Rad) (Bravman T, et al. Anal Biochem 358:281-288, 2006). […] Individual anti-ST2L mAb was then captured by flowing (1 μg/mL) antibody solution prepared in PBS containing 0.5% Nonidet P-40 and 0.5% Na-deoxycholate). The signal in the surfaces reached ˜250 resonance units (RU, 1 RU=1 pg protein/mm²) in the anti-Fc-coated surfaces, confirming that these antibodies specifically capture anti-ST2L mAbs. After 90° rotation of the fluid system, wild type of ST2L-D1D2 or variant proteins (0.5 mg/mL in PBS containing 0.5% Nonidet P-40 and 0.5% Na-deoxycholate) was injected in the parallel flow channels. All of these assays were performed at 25° C. The ST2L-D1D2-dependent signals on the surfaces were obtained by double referencing, subtracting the response observed on surfaces immobilizing the antibodies alone, and the signal observed injecting the vehicle alone (which allows correction for binding-independent responses). The resulting sensorgrams were fitted by the simplest 1:1 interaction model (ProteOn analysis software), to obtain the corresponding association and dissociation rate constants (kₐ and kd).
Residue numbering is according to full length human ST2L of SEQ ID NO: 1.

The target in experiment [2] is T2, human ST2L extracellular domain with C-terminal His6 tag (human, UniProt Q01638 19-328).
T2 construct: also called huST2L-ECD; ST2L-ECD
T2 sequence: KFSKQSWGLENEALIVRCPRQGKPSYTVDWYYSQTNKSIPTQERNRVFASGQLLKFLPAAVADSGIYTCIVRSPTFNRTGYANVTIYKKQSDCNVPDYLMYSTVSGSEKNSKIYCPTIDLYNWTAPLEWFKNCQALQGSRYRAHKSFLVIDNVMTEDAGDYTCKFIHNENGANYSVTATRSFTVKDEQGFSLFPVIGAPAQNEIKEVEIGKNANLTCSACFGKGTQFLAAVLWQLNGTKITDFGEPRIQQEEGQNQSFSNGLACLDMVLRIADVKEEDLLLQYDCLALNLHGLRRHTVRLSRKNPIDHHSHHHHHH
Put plainly: RLB ELISA: biotinylated IL-33 on coated huST2L-ECD, antibody titrated. The gist of the method:
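Plates coated 16 h at 4 °C with His6-tagged ST2L-ECD (human aa 19-328, 4 μg/ml; cyno aa 19-321, 2 μg/ml). Titrated mAbs applied 1 h at RT, then biotinylated IL-33 added 30 min (human 112-270 at 100 ng/ml final; cyno 112-269 at 200 ng/ml final). Bound ligand detected with streptavidin-HRP/TMB, OD450.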
(In an ELISA, binding on a coated surface is turned into a signal by an enzyme label.)

The target of experiment [3] is T3, human ST2L, full length, on cells (human, UniProt Q01638 19-556).
T3 sequence: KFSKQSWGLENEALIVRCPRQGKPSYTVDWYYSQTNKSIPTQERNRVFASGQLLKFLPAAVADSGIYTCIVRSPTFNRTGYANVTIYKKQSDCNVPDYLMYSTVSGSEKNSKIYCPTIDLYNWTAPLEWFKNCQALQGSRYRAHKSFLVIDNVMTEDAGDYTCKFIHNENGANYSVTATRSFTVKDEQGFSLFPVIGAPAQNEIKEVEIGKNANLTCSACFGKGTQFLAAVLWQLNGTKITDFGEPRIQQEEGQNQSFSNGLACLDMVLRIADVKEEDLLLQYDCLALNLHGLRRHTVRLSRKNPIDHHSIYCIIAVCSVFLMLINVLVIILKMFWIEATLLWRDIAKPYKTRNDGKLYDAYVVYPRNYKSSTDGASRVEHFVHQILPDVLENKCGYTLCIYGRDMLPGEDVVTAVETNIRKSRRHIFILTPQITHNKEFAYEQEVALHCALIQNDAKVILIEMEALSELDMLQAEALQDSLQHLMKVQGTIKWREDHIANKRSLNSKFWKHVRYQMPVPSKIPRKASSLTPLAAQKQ
Briefly: cell-based or functional assay.

In experiment [4] the target is T4, cynomolgus (Macaca fascicularis) ST2L extracellular domain with C-terminal His6 tag (Macaca fascicularis (cynomolgus), UniProt Q01638 19-321 (human entry)).
T4 construct: also called cyno ST2L-ECD; cynoST2L-ECD
T4 chain: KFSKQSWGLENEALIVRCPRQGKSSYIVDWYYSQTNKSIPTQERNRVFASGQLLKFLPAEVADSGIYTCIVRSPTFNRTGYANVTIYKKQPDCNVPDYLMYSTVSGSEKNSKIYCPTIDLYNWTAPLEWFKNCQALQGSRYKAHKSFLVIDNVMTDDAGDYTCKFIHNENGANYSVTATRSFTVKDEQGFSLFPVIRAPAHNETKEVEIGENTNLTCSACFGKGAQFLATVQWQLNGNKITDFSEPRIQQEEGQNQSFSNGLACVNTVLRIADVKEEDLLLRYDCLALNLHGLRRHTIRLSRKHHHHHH
Put plainly: SPR, mAb captured, ST2L-ECD in solution.

In experiment [5] the target is T2, human ST2L extracellular domain with …. Briefly: SPR, mAb captured, ST2L-ECD in solution.

B1: STLM208 (antibody, V domains shown)
VH: EVQLLESGGGLVQPGGSLRLSCAASGFTFSIYDMIWVRQAPGKGLEWVSSIRGEGGGTYYADSVKGRFTISRDNSKNTLYLQMNSLRAEDTAVYYCARDPWSTEGSFFVLDYWGQGTLVTVSS
VL: EIVLTQSPATLSLSPGERATLSCRASQSVDDDLAWYQQKPGQAPRLLIYDASNRATGIPARFSGSGSGTDFTLTISSLEPEDFAVYYCQQYITAPLTFGQGTKVEIK
notes: frameworks VH3-23 / Vk-L6
On to B1, for which the equilibrium dissociation constant (Kd) – broadly, the constant that tells how readily two partners part at equilibrium – in experiment [1] is around 0.0108 nM. Besides, the IC50 – broadly, the midpoint of a concentration-inhibition curve – in experiment [2] was 0.47 µg/mL. The “RGA IC50” value in experiment [3] worked out at 0.61 µg/mL. Also, in experiment [4], the affinity, expressed as Kd, was 0.005 nM; the koff (in general, the rate constant with which the complex falls apart) was 7.02e-05 s⁻¹; the on-rate (kon) (usually the rate constant with which the complex forms) stood at 1.39e+07 M⁻¹ s⁻¹. In experiment [5], this molecule came in with a Kd of 0.011 nM, a dissociation rate constant (koff) of 6.76e-05 s⁻¹ and an on-rate constant (kon) of 5.97e+06 M⁻¹ s⁻¹.
